Columns and labels:
[1] = target: prothrombin with an Alexa532 on the 271 cleavage site that was attached by mutating the arginine to a cysteine (UniProt P00734); assay: FRET, Alexa488-FVa donor and Alexa532 prothrombin acceptor, buffer control
[2] = target: prothrombin with an Alexa532 on the 271 cleavage site that was attached by mutating the arginine to a cysteine (UniProt P00734); assay: FRET, Alexa488-FVa donor and Alexa532 prothrombin acceptor, with 2.5 µM RNA aptamer T18.3

emission percentage (FRET) [1]: 16.3%
emission percentage (FRET) [2]: 17.5%
Substance: FVa with Alexa488 on the 539 residue (from UniProt P12259 29-2224)
